Data as given in PMC3515695 (Nature structural & molecular biology, 2012).

Molecular target: the molecule itself
Experiment: SAXS

B1: full-length Caenorhabditis elegans TDP2 (enzyme, UniProt Q9XWG3 1-362, looked up)
chain: MSNSDDEIQEIEAKRQKMSQEDSEVEIEILDEPEQGKLKNSSMSDEQKLHEFAIITATDEAFAQSILQDVDWDLKKALDVFYGSEAFAEARSAAVMGASSSMASSGAAVMTAEDLKGFEVSVMSWNIDGLDGRSLLTRMKAVAHIVKNVNPDILFLQEVVDRDLAPIDKLQSLYKIYYSNKGCQYYTAILVSKMFDVEKHDVIHFQNSGMYRTLQILEGSIGGLKVFLLNTHLESTREHRPQRCAQFGFCMDKVREIIAQNPGALVFFGGDLNLRDEEVSRVPDGVKDAWEAAGSDNKTKFTWDTFKNDNKQGFHGAKMRFDRLYWSGPLDKVKFTLEGRQRIRSCLCFPSDHWAINATFFA
- stoichiometry N: 2
